Reference: patent US20240400654A1
Positions count from the first letter of the chain named. Names may count otherwise. “And” between values parts separate entries of the source, which are not always exact repeats. Identical values can stand only once.

B1: KB001 mouse Fab variant VL L55R/S51G (Fab, V domains shown)
VH: EVQLKQSGPGLVAPSQSLSITCTVSGFSLSIYSVHWVRQPPGKGLEWLGMIWGGGSSDYNSALKSRLSISKDNSKSQVFLKMNSLQTDDTAMYYCARNGNFYAMDYWGQGTSVTVSS
VL: QIVLTQSPAIMSASLGERVTMTCTASSSVSSSFLHWYQQKPGSSPQLWIYGTSNRASGVPARFSGSGSGTSYSLTISSMEAEDAATYYCHQYHHSPYIYTFGGGTKLEIK
B2: KB001 mouse Fab variant VL L55H (Fab, V domains shown)
VH: B1 VH
VL: B1 VL with G51S, R55H
B3: KB001 mouse Fab variant VL A56T (Fab, V domains shown)
VH: B1 VH
VL: B1 VL with G51S, R55L, A56T
B4: KB001 mouse Fab variant VL A56N (Fab, V domains shown)
VH: B1 VH
VL: B1 VL with G51S, R55L, A56N
B5: KB001 mouse Fab variant VL L55S (Fab, V domains shown)
VH: B1 VH
VL: B1 VL with G51S, R55S
B6: KB001 mouse Fab variant VL L55Q (Fab, V domains shown)
VH: B1 VH
VL: B1 VL with G51S, R55Q
B7: KB001 mouse Fab VH A62R (Fab, V domains shown)
VH: B1 VH with A62R
VL: B1 VL with G51S, R55L
B8: KB001 mouse Fab VH S61K (Fab, V domains shown)
VH: B1 VH with S61K
VL: B1 VL with G51S, R55L
B9: KB001 mouse Fab VH A62F (Fab, V domains shown)
VH: B1 VH with A62F
VL: B1 VL with G51S, R55L
B10: KB001 mouse Fab VH K64G (Fab, V domains shown)
VH: B1 VH with K64G
VL: B1 VL with G51S, R55L
B11: KB001 mouse Fab VH A62M (Fab, V domains shown)
VH: B1 VH with A62M
VL: B1 VL with G51S, R55L
B12: KB001 mouse Fab VH A62V (Fab, V domains shown)
VH: B1 VH with A62V
VL: B1 VL with G51S, R55L
B13: KB001 mouse Fab VH A62E (Fab, V domains shown)
VH: B1 VH with A62E
VL: B1 VL with G51S, R55L
B14: KB001 mouse Fab VH S61L (Fab, V domains shown)
VH: B1 VH with S61L
VL: B1 VL with G51S, R55L
B15: KB001 mouse Fab VH A62L (Fab, V domains shown)
VH: B1 VH with A62L
VL: B1 VL with G51S, R55L
B16: KB001 mouse Fab VH K64V (Fab, V domains shown)
VH: B1 VH with K64V
VL: B1 VL with G51S, R55L
B17: KB001 mouse Fab VH K64M (Fab, V domains shown)
VH: B1 VH with K64M
VL: B1 VL with G51S, R55L
B18: KB001 mouse Fab VH K64H (Fab, V domains shown)
VH: B1 VH with K64H
VL: B1 VL with G51S, R55L
B19: KB001 mouse Fab VH L63F (Fab, V domains shown)
VH: B1 VH with L63F
VL: B1 VL with G51S, R55L
B20: KB001 mouse Fab VH K64S (Fab, V domains shown)
VH: B1 VH with K64S
VL: B1 VL with G51S, R55L
B21: KB001 mouse Fab VL T100D (Fab, V domains shown)
VH: B1 VH
VL: B1 VL with G51S, R55L, T100D
B22: KB001 mouse Fab VH K64Y (Fab, V domains shown)
VH: B1 VH with K64Y
VL: B1 VL with G51S, R55L
B23: KB001 mouse Fab VH S61Y (Fab, V domains shown)
VH: B1 VH with S61Y
VL: B1 VL with G51S, R55L
B24: KB001 mouse Fab VH S61H (Fab, V domains shown)
VH: B1 VH with S61H
VL: B1 VL with G51S, R55L
B25: KB001 mouse Fab VH L63M (Fab, V domains shown)
VH: B1 VH with L63M
VL: B1 VL with G51S, R55L
B26: KB001 mouse Fab VH A62D (Fab, V domains shown)
VH: B1 VH with A62D
VL: B1 VL with G51S, R55L
B27: KB001 mouse Fab VH S61F (Fab, V domains shown)
VH: B1 VH with S61F
VL: B1 VL with G51S, R55L
B28: KB001 mouse Fab VH A62G (Fab, V domains shown)
VH: B1 VH with A62G
VL: B1 VL with G51S, R55L
B29: KB001 mouse Fab VH A62I (Fab, V domains shown)
VH: B1 VH with A62I
VL: B1 VL with G51S, R55L
B30: KB001 mouse Fab VH A62Q (Fab, V domains shown)
VH: B1 VH with A62Q
VL: B1 VL with G51S, R55L
B31: KB001 mouse Fab VH L63V (Fab, V domains shown)
VH: B1 VH with L63V
VL: B1 VL with G51S, R55L
B32: KB001 mouse Fab VH S61G (Fab, V domains shown)
VH: B1 VH with S61G
VL: B1 VL with G51S, R55L
B33: KB001 mouse Fab VH K64I (Fab, V domains shown)
VH: B1 VH with K64I
VL: B1 VL with G51S, R55L
B34: KB001 mouse Fab VH L63H (Fab, V domains shown)
VH: B1 VH with L63H
VL: B1 VL with G51S, R55L
B35: KB001 mouse Fab VH S61C (Fab, V domains shown)
VH: B1 VH with S61C
VL: B1 VL with G51S, R55L
B36: KB001 mouse Fab VL T100K (Fab, V domains shown)
VH: B1 VH
VL: B1 VL with G51S, R55L, T100K
B37: KB001 mouse Fab VH A62H (Fab, V domains shown)
VH: B1 VH with A62H
VL: B1 VL with G51S, R55L
B38: KB001 mouse Fab VH S61R (Fab, V domains shown)
VH: B1 VH with S61R
VL: B1 VL with G51S, R55L
B39: KB001 mouse Fab VH S61M (Fab, V domains shown)
VH: B1 VH with S61M
VL: B1 VL with G51S, R55L
B40: KB001 mouse Fab VH L63Y (Fab, V domains shown)
VH: B1 VH with L63Y
VL: B1 VL with G51S, R55L
B41: KB001 mouse Fab VH A62N (Fab, V domains shown)
VH: B1 VH with A62N
VL: B1 VL with G51S, R55L

The binders below were run against HRgpA-6H (Porphyromonas gingivalis) (UniProt P28784) (assay: ELISA, FASEBA Fab supernatant on coated HRgpA-6H).
Sequence of UniProt P28784 (P28784 228-860 limits assumed): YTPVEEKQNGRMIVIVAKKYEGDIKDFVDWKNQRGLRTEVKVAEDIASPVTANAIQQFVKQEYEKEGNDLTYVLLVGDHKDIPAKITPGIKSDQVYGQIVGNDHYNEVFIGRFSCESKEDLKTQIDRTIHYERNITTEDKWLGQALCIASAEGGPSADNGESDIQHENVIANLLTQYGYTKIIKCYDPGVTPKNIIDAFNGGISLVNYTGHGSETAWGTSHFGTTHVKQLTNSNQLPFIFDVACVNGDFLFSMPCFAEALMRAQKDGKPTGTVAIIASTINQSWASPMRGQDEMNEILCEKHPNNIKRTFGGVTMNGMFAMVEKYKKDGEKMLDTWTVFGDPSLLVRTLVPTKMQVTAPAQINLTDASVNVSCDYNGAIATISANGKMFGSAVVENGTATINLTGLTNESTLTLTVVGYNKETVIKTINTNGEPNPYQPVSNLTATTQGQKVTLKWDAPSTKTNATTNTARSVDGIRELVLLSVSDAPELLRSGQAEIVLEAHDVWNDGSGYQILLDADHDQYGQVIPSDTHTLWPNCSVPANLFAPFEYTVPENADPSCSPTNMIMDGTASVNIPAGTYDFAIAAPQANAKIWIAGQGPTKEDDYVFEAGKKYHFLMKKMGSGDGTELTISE

Binder | OD450 nm
B1 | 0.748
B2 | 0.64
B3 | 0.731
B4 | 0.712 and 0.775
B5 | 0.655
B6 | 0.662

These binders were tested against HRgpA-6H (Porphyromonas gingivalis) (UniProt P28784) (assay: ELISA on coated HRgpA-6H, OD relative to parental Fab).

Binder | Ratio OD(Variant)/OD(WT)
B1 | 0.955 fold
B2 | 0.817 fold
B3 | 0.896 fold
B4 | 0.873 fold and 0.95 fold
B5 | 0.836 fold
B6 | 0.845 fold

What follows are binders tested against HRgpA-6H (Porphyromonas gingivalis) (UniProt P28784) (assay: ELISA, coated HRgpA-6H).

Binder | OD450 nm | Ratio OD(Variant)/OD(WT)
B7 | 0.733 and 0.847 and 0.809 | 0.839 and 0.969 and 0.926
B8 | 0.49 | 0.993
B9 | 0.843 and 0.733 | 0.965 and 0.839
B10 | 0.806 | 0.975
B11 | 0.77 and 0.735 | 0.881 and 0.841
B12 | 0.742 and 0.757 | 0.849 and 0.866
B13 | 0.854 | 0.977
B14 | 0.448 | 0.908
B15 | 0.812 | 0.929
B16 | 0.715 and 0.714 | 0.865 and 0.863
B17 | 0.799 and 0.757 and 0.78 | 0.966 and 0.915 and 0.943
B18 | 0.752 | 0.909
B19 | 0.743 | 0.85
B20 | 0.808 | 0.977
B21 | 0.645 | 1.23
B22 | 0.763 | 0.923
B23 | 0.423 | 0.857
B24 | 0.469 | 0.95

Binder | OD450 nm | Ratio OD(Variant)/OD(WT)
B25 | 0.8 | 0.915
B26 | 0.853 and 0.851 | 0.976 and 0.974
B27 | 0.432 and 0.473 | 0.875 and 0.958
B28 | 0.813 and 0.785 | 0.93 and 0.898
B29 | 0.702 and 0.808 | 0.803 and 0.924
B30 | 0.737 and 0.869 | 0.843 and 0.994
B31 | 0.784 and 0.77 and 0.778 | 0.897 and 0.881 and 0.89
B32 | 0.46 and 0.476 | 0.932 and 0.965
B33 | 0.743 and 0.756 and 0.715 | 0.898 and 0.914 and 0.865
B34 | 0.818 and 0.843 and 0.822 | 0.936 and 0.965 and 0.941
B35 | 0.431 | 0.873
B36 | 0.625 | 1.19
B37 | 0.819 and 0.834 and 0.844 | 0.937 and 0.954 and 0.966
B38 | 0.438 | 0.888
B39 | 0.493 and 0.479 | 0.999 and 0.971
B40 | 0.836 and 0.846 and 0.801 | 0.957 and 0.968 and 0.916
B41 | 0.721 and 0.799 | 0.825 and 0.914
